Substrate in this data set: CC(=O)NCCCNCCCCN
In words: colorimetric acetate release. Type of data set: biochemical, Mycoplana ramosa. The conditions noted are these: 26 °C. The text has this: colorimetric acetate release on M. ramosa APAH

B1: M. ramosa APAH (Mycoplana ramosa) (protein)
chain: MRVIFSEDHKLRNAKTELYGGELVPPFEAPFRAEWILAAVKEAGFDDVVAPARHGLETVLKVHDAGYLNFLETAWDRWKAAGYKGEAIATSFPVRRTSPRIPTDIEGQIGYYCNAAETAISPGTWEAALSSMASAIDGADLIAAGHKAAFSLCRPPGHHAGIDMFGGYCFINNAAVAAQRLLDKGAKKIAILDVDFHHGNGTQDIFYERGDVFFASLHGDPAEAFPHFLGYAEETGKGAGAGTTANYPMGRGTPYSVWGEALTDSLKRIAAFGAEAIVVSLGVDTFEQDPISFFKLTSPDYITMGRTIAASGVPLLVVMEGGYGVPEIGLNVANVLKGVAG
notes: 341 aa; positive comparative control enzyme
Take B1: the Km turned out to be 630 ± 40 µM, the kcat turned out to be 5.8 ± 0.14 s⁻¹ and the catalytic efficiency (kcat/Km) came out at 9300 ± 450 M⁻¹ s⁻¹.

Broadly, the Km is the concentration of substrate that gives half-maximal velocity. As usually defined, the kcat is the maximal rate divided by the concentration of active sites. What is called kcat/Km is the second-order rate constant that governs catalysis at low substrate concentration.

(Values after paper PMC9992855, “Functional polyamine metabolic enzymes and pathways encoded by the virosphere” (Proceedings of the National Academy of Sciences of the …, 2023).)
